Test results from PMC10928148 (Molecular Therapy, 2024).

How the values were obtained:
[1] = biological target: T1, receptor binding domain of the SARS-CoV-2 (Wuhan) Spike protein with C-terminal 6xHis-tag (Severe acute respiratory syndrome …, UniProt P0DTC2); test: SPR; settings: both partners purified
[2] = biological target: T1, receptor binding domain of the …; test: SPR; settings: both partners purified; remark: listed apart in the source
[3] = biological target: T2, receptor binding domain of the SARS-CoV-2 (Wuhan) Spike protein with C-terminal 6xHis-tag (SARS-CoV-2 (Wuhan), UniProt P0DTC2); test: cell-based or functional assay
[4] = biological target: T2, receptor binding domain of the …; test: SPR; settings: both partners purified

B1: 2-15 monomeric IgA1 (antibody, V domains shown)
VH: QVQLVQSGAEVKKPGASVRVSCKASGYTFTGYYMHWVRQAPGQGLEWMGWINPISDGTNYAQKFQGWVTMTRDTSISTVYMELSRLRSDDTAVYYCARGGSRCSGGNCYGWAYDAFDIWGQGTMITVSS
VL: QSALTQPASVSGSPGQSITISCTGTSSDVGGYNFVSWYQQHPGKAPKLMIYDVSKRPSGVSNRFSGSKSGNTASLTISGLQAEDEADCYCSSYTSSSTFVFGTGTKVTVL
[1]
  Kd: 3.75 nM

B2: 2-15 IgG (antibody, V domains shown)
VH: B1 VH
VL: B1 VL
[1]
  Kd: 1.16 nM

B3: 2-15 monomeric IgA2 (antibody, V domains shown)
VH: B1 VH
VL: B1 VL
[1]
  Kd: 2.88 nM

B4: COVA2-15 monomeric IgA1 (antibody, V domains shown)
VH: QVQLLESGGGLVQPGGSLRLSCAASGFTFSSYAMSWVRQAPGKGLEWASAISGSGGSTYYADSVEGRFTISRDNSKNTLYLQMNSLRAEDTAVYYCAKDTGYCGDDCYIKLIRGGPDYWGQGTLVTVSS
VL: DIVMTQSPLSLPVTLGQPASISCRSSQSLVYSDGNTFLNWFQQRPGQSPRRLIYQVSNRDSGVPDRFSGSGSGTDFTLKISRVEAEDVGVYYCMQGTHWPRTFGQGTKLEIK
[2]
  Kd: 1.43 nM
  koff: 0.00027 s⁻¹
  kon: 231000 M⁻¹ s⁻¹

B5: COVA2-15 IgG (antibody, V domains shown)
VH: B4 VH
VL: B4 VL
[3]
  other: 50 ng/mL
[4]
  Kd: 0.74 nM
  koff: 0.00024 s⁻¹
  kon: 333000 M⁻¹ s⁻¹

B6: COVA2-15 monomeric IgA2 (antibody, V domains shown)
VH: B4 VH
VL: B4 VL
[2]
  Kd: 1.67 nM
  koff: 0.00035 s⁻¹
  kon: 207000 M⁻¹ s⁻¹

B7: COVA2-15 secretory IgA2 (antibody, V domains shown)
VH: B4 VH
VL: B4 VL
[3]
  other: 13.5 ng/mL
[4]
  Kd: 0.76 nM
  koff: 0.00024 s⁻¹
  kon: 326000 M⁻¹ s⁻¹

B8: COVA2-15 monomeric IgA1 (antibody, V domains shown)
VH: B4 VH
VL: B4 VL
[3]
  other: 50 ng/mL

B9: COVA2-15 monomeric IgA2 (antibody, V domains shown)
VH: B4 VH
VL: B4 VL
[3]
  other: 50 ng/mL

B10: COVA2-15 secretory IgA1 (antibody, V domains shown)
VH: B4 VH
VL: B4 VL
[3]
  other: 13.5 ng/mL
[4]
  Kd: 0.38 nM
  koff: 0.00016 s⁻¹
  kon: 423000 M⁻¹ s⁻¹
